Results taken from patent US8143025B2, “Antibodies against vascular endothelial growth factor receptor-1” (ImClone LLC, priority 2004, dated 2012).
Entries after “also recorded” stand apart in the source; their conditions may differ.

How the values were obtained:
[1] = biological target: T1, native VEGFR-I on PAE-VEGFR-I cells (Homo sapiens, UniProt P17948); test: Flow cytometry analysis, PAE-VEGFR-I cells; type: binding; details: FIG. 7
T1 construct: host or cells: porcine aorta endothelial (PAE) cells
Method: Aliquots of 10^6PAE-VEGFR-I cells were harvested from subconfluent cultures and incubated with anti-VEGFR-I antibody clones 6F9, 13G12, F11, and 18F1 in PBS with 1% bovine serum albumin (BSA) and 0.02% sodium azide (staining buffer) for one hour on ice. Aliquots of 10^6DU4475 human breast carcinoma cells were harvested from subconfluent cultures and incubated with anti-VEGFR-1 antibody clone 18F1 in PBS with 1% bovine serum albumin (BSA) and 0.02% sodium azide (staining buffer) for one hour on ice. A matched IgG isotype (Jackson ImmunoResearch, West Grove, Pa.) was used as a negative control. Cells were washed twice with flow buffer and then incubated with a fluorescein isothiocyanate (FITC)-labeled goat anti-human IgG antibody (BioSource International, Camarillo, Calif.) in staining buffer for 30 minutes on ice. Cells were washed as above and analyzed on an Epics XL flow cytometer (Beckman-Coulter, Hialeah, Fla.). Dead cells and debris were eliminated from the analysis on the basis of forward and sideways light scatter. The mean fluorescent intensity units (MFRJ) were calculated as the mean log fluorescence multiplied by the percentage of positive population.

[2] = tested on: HT-29 xenograft; test: HT-29 colon cancer xenograft; type: in vivo, mouse; details: monotherapy, FIG. 26A
Method: Female athymic nu/nu mice, 6-8 weeks of age, were injected subcutaneously on the lateral dorsal surface with 0.4 mL volume of a suspension containing a human tumor cell line in media, diluted 1:1 with MATRIGEL™ (BD Biosciences). The cell lines used in xenograft models, with the cell doses indicated in parenthesis (10^6 cells/mouse), were: human colon carcinoma cell lines DLD-I (5), GEO (5) and HT-29 (5); human breast carcinoma cell lines DU4475 (2), MDA-MB-231 (5), MDA-MB-435 (5), and BT474 (5). When tumors reached approximately 200-300 mm^3, mice were randomized by tumor size and divided into treatment groups. Tumor growth was evaluated approximately twice weekly, with tumor volume calculated as π/6* (Length*Width^2), where Length=longest diameter and Width=diameter perpendicular to Length. Tumor dimensions were measured with calipers. T/C % was calculated as 100*(Final Treatment Tumor Volume/Initial Treatment Tumor Volume)/(Final Control Tumor Volume/Initial Control Tumor Volume).
18F1 was diluted in 0.9% USP saline (Braun) or phosphate buffered saline (PBS) and administered intraperitoneally in a volume of 0.5 mL per mouse. The effect of treatment on tumor growth was analyzed using repeated measures analysis of variance (RM ANOVA), p<0.05 was considered significant.

[3] = biological target: T2, VEGFR-I on PAE-VEGFR-I expressing cells (Homo sapiens, UniProt P17948); test: Surface VEGFR-I blocking assay (125I-VEGF); type: binding; details: porcine aorta endothelial cells, FIG. 9
T2 construct: host or cells: porcine aorta endothelial (PAE) cells
Method: The binding of ^125I-VEGF to VEGFR-I on cell surface was performed using PAE-VEGFR-I expressing cells. […] Confluent cells were incubated in serum- and growth supplement-free Dulbecco's Modified Eagle Medium (DMEM)ZF-12 medium (Invitrogen, Carlsbad, Calif.) for 24 hours. Cells were rinsed once with ice-cold DMEMZF-12 medium containing 0.025 M HEPES and 1 mgZml bovine serum albumin (BSA). A serial dilution of anti-VEGFR-I antibody 18F1 or cold VEGF at the concentration of a 200-fold molar excess of labeled VEGF was added to each well in the plate and incubated at 4° C. for 1 hour. After wash, ^125I-VEGF was added at the concentration of 2 ngZml and was incubated at 4° C. for 2 hours on a platform shaker. The cells were washed three times with PBS containing 1 mgZml BSA and 0.25 mM CaCl2, and were incubated for 5 minutes in the presence of 1% Triton X-100, 1 mgZml BSA, and 0.16% NaN3 to remove bound VEGF. The soluble content of each well was counted in a gamma counter. The assays were performed in triplicate in at least three independent experiments and the data were analyzed using Prism GraphPad software 3.03.

[4] = biological target: VEGFR-I (Homo sapiens, UniProt P17948); test: VEGFR-I phosphorylation assay, BT474 cells; type: cell-based; design: endogenous in cells; host or cells: BT474 human breast carcinoma cells; details: BT474 breast cancer cells, compared to untreated control, FIG. 11
Method: Confluent porcine aorta endothelial VEGFR-I expressing (PAE-VEGFR-I) cells and BT474 human breast carcinoma cells were cultured in serum-depleted F12 medium for 48 hours. The cells were then preincubated with anti-VEGFR-I antibody clone 18F1 at concentrations ranging from 0.1 to 30 μg/ml for 1 hour followed by stimulating with VEGF or PlGF for 5 minutes at 37° C. The cells were then rinsed with ice-cold PBS and lysed in lysis buffer (50 mM HEPES, 150 mM NaCl, 1% Triton X-100, and 10% glycerol containing 1 mM phenylmethylsulfonyl fluoride, 10 μg/ml aprotinin, 10 μg/ml leupeptin, and 1 mM sodium vanadate). Cell lysates were subjected to SDS-PAGE and transferred onto Immobilon membranes (Millipore Corp. Billerica, Mass.). […]
Autophosphorylation of the VEGFR-I induced by its ligands and resulting activation of a classical MAPK, extracellular signal-regulated protein kinases 1Z2 (ERK1Z2) and the PBK/Atk downstrean signaling pathways mediate cellular biological responses such as proliferation, motility, survival, and differentiation. The ability of an anti-VEGFR-1 antibody to inhibit phosphorylation of VEGFR-I and activation of ERK1 Z2 and the Akt kinases downstream signaling were determined by using the PAE-VEGFR-I transfectant and BT474 breast carcinoma cells. […]

Sequence of VEGFR-I (P17948 27-1338): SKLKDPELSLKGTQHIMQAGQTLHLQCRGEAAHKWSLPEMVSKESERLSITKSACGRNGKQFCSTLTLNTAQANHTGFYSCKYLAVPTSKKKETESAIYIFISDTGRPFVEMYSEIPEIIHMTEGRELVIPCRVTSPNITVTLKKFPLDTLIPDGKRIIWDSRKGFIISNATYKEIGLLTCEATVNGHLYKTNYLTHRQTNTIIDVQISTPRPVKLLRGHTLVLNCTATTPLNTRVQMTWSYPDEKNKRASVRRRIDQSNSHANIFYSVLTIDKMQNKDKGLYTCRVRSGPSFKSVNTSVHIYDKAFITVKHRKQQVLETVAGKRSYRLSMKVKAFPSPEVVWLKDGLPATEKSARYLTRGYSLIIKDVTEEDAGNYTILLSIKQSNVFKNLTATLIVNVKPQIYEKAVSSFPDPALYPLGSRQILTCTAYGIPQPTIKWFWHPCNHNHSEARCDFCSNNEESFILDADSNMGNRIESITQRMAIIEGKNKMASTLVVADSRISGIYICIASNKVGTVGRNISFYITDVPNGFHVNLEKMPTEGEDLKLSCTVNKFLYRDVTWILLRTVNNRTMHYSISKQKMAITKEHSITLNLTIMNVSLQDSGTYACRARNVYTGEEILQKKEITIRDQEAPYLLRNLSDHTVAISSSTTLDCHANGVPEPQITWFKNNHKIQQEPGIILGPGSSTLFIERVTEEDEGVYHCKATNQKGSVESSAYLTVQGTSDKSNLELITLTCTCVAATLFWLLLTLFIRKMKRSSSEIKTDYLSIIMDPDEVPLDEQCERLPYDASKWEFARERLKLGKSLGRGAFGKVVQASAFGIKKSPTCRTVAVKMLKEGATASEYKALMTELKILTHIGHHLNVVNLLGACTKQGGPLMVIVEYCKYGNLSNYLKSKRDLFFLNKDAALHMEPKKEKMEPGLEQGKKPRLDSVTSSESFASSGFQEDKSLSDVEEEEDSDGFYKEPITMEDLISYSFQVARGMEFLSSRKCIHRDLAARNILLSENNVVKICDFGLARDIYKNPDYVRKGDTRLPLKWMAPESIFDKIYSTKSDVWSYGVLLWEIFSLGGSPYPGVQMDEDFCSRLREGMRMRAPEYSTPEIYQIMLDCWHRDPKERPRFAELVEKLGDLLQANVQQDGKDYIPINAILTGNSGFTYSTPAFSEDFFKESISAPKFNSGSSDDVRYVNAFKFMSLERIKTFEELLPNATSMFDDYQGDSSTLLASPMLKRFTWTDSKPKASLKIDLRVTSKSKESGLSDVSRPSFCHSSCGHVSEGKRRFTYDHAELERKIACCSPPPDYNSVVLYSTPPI
T2 sequence (P17948 27-1338): as above
T1 sequence (P17948 27-1338): as above

- binding reactivity with PAE-VEGFR-I expressing cells [1]: binding reactivity
- blocking of 125I-VEGF binding to native VEGFR-I [3]: strong blocking activity
Substance: 18F1: human anti-VEGFR-1 monoclonal antibody clone; VL SEQ ID NO: 16, VH SEQ ID NO: 20 [Clone 18F1]
- antitumor effect against HT-29 colon cancer xenografts [2]: significant antitumor effect
- PlGF or VEGF-stimulated phosphorylation of VEGFR-I [4]: significantly reduced; also recorded: inhibition
